{"source": "patent US20240131147A1", "biological_target": "HIV-1 Clade B Env RHPA on pseudotyped virus (HIV-1)", "assay": "competition ELISA on coated RHPA pseudovirus; competitors: sera of MLA092- and MLA025-immunized mice diluted 1:400", "data": [{"substance": "10E8 broadly neutralizing human anti-HIV-1 Env monoclonal antibody", "values": [{"measurement": "concentration that completely inhibited the binding of sera", "value": 2, "unit": "µg/mL"}]}]}
